# Assay results from the supplement of paper PMC5998384.
# Assays:
# [1] = system: HeLa Kyoto; test: solubility in G1/S (NP-40 vs SDS abundance) (log2 ratio); higher = more soluble; conditions: cell cycle stage: G1/S
# [2] = system: HeLa Kyoto; test: thermal stability score vs G1/S (z-score of summed log2 fold changes over temperatures); higher = more thermally stable than in G1/S
# [3] = system: HeLa Kyoto; test: melting temperature (median over replicates), in situ; higher = more thermally stable
# [4] = system: HeLa Kyoto; test: solubility change mitosis vs G1/S (difference of NP-40 vs SDS log2 ratios) (log2 ratio difference); higher = more soluble in mitosis
# [5] = cell cycle stage: early G1 (4.5 h after nocodazole release)
# 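Throughout, for melting temperature (median over replicates), in situ: HeLa Kyoto cells synchronized by double thymidine or nocodazole block, proteins quantified by TMT10plex mass spectrometry, three independent biological replicates.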
# 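Throughout, for solubility change mitosis vs G1/S (difference of NP-40 vs SDS log2 ratios): synchronized HeLa Kyoto cells (double thymidine block for G1/S, nocodazole release for mitosis), protein amounts in NP-40 versus SDS lysates quantified by mass spectrometry, three biological replicates.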
# 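Throughout, for solubility in G1/S (NP-40 vs SDS abundance): HeLa Kyoto cells arrested at G1/S by double thymidine block, proteins quantified by TMT10plex mass spectrometry in mild NP-40 versus SDS extracts, three biological replicates.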
# 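Throughout, for thermal stability score vs G1/S (z-score of summed log2 fold changes over temperatures): synchronized HeLa Kyoto cells, proteins quantified by TMT10plex mass spectrometry, three biological replicates, mitosis taken 0.5 h after nocodazole release, G1/S directly after double thymidine block.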
Sequence,solubility in G1/S (log2) [1],"thermal stability score [2, 5]",thermal stability score ([2]; cell cycle stage: mitosis),melting temperature ([3]; cell cycle stage: G1/S) [°C],melting temperature ([3]; cell cycle stage: mitosis) [°C],solubility change mitosis (log2) [4]
MGSGARFPSGTLRVRWLLLLGLVGPVLGAARPGFQQTSHLSSYEIITPWRLTRERREAPRPYSKQVSYVIQAEGKEHIIHLERNKDLLPEDFVVYTYNKEGTLITDHPNIQNHCHYRGYVEGVHNSSIALSDCFGLRGLLHLENASYGIEPLQNSSHFEHIIYRMDDVYKEPLKCGVSNKDIEKETAKDEEEEPPSMTQLLRRRRAVLPQTRYVELFIVVDKERYDMMGRNQTAVREEMILLANYLDSMYIMLNIRIVLVGLEIWTNGNLINIVGGAGDVLGNFVQWREKFLITRRRHDSAQLVLKKGFGGTAGMAFVGTVCSRSHAGGINVFGQITVETFASIVAHELGHNLGMNHDDGRDCSCGAKSCIMNSGASGSRNFSSCSAEDFEKLTLNKGGNCLLNIPKPDEAYSAPSCGNKLVDAGEECDCGTPKECELDPCCEGSTCKLKSFAECAYGDCCKDCRFLPGGTLCRGKTSECDVPEYCNGSSQFCQPDVFIQNGYPCQNNKAYCYNGMCQYYDAQCQVIFGSKAKAAPKDCFIEVNSKGDRFGNCGFSGNEYKKCATGNALCGKLQCENVQEIPVFGIVPAIIQTPSRGTKCWGVDFQLGSDVPDPGMVNEGTKCGAGKICRNFQCVDASVLNYDCDVQKKCHGHGVCNSNKNCHCENGWAPPNCETKGYGGSVDSGPTYNEMNTALRDGLLVFFFLIVPLIVCAIFIFIKRDQLWRSYFRKKRSQTYESDGKNQANPSRQPGSVPRHVSPVTPPREVPIYANRFAVPTYAAKQPQQFPSRPPPPQPKVSSQGNLIPARPAPAPPLYSSLT [ADAM9],-0.486,-2.54,-2.91,57.3,56.8,-0.00657
MGSRVSREDFEWVYTDQPHADRRREILAKYPEIKSLMKPDPNLIWIIIMMVLTQLGAFYIVKDLDWKWVIFGAYAFGSCINHSMTLAIHEIAHNAAFGNCKAMWNRWFGMFANLPIGIPYSISFKRYHMDHHRYLGADGVDVDIPTDFEGWFFCTAFRKFIWVILQPLFYAFRPLFINPKPITYLEVINTVAQVTFDILIYYFLGIKSLVYMLAASLLGLGLHPISGHFIAEHYMFLKGHETYSYYGPLNLLTFNVGYHNEHHDFPNIPGKSLPLVRKIAAEYYDNLPHYNSWIKVLYDFVMDDTISPYSRMKRHQKGEMVLE [DEGS1],-0.186,-0.898,-1.88,55,55.2,-0.264
MGTPGEGLGRCSHALIRGVPESLASGEGAGAGLPALDLAKAQREHGVLGGKLRQRLGLQLLELPPEESLPLGPLLGDTAVIQGDTALITRPWSPARRPEVDGVRKALQDLGLRIVEIGDENATLDGTDVLFTGREFFVGLSKWTNHRGAEIVADTFRDFAVSTVPVSGPSHLRGLCGMGGPRTVVAGSSDAAQKAVRAMAVLTDHPYASLTLPDDAAADCLFLRPGLPGVPPFLLHRGGGDLPNSQEALQKLSDVTLVPVSCSELEKAGAGLSSLCLVLSTRPHS [DDAH2],0.479,0.156,0.00237,55.2,54,0.0772
MGTPQKDVIIKSDAPDTLLLEKHADYIASYGSKKDDYEYCMSEYLRMSGIYWGLTVMDLMGQLHRMNREEILAFIKSCQHECGGISASIGHDPHLLYTLSAVQILTLYDSINVIDVNKVVEYVKGLQKEDGSFAGDIWGEIDTRFSFCAVATLALLGKLDAINVEKAIEFVLSCMNFDGGFGCRPGSESHAGQIYCCTGFLAITSQLHQVNSDLLGWWLCERQLPSGGLNGRPEKLPDVCYSWWVLASLKIIGRLHWIDREKLRNFILACQDEETGGFADRPGDMVDPFHTLFGIAGLSLLGEEQIKPVNPVFCMPEEVLQRVNVQPELVS [RABGGTB],0.122,-0.232,1.64,49.8,50.3,-0.347
MGTPRAQHPPPPQLLFLILLSCPWIQGLPLKEEEILPEPGSETPTVASEALAELLHGALLRRGPEMGYLPGSDRDPTLATPPAGQTLAVPSLPRATEPGTGPLTTAVTPNGVRGAGPTAPELLTPPPGTTAPPPPSPASPGPPLGPEGGEEETTTTIITTTTVTTTVTSPVLCNNNISEGEGYVESPDLGSPVSRTLGLLDCTYSIHVYPGYGIEIQVQTLNLSQEEELLVLAGGGSPGLAPRLLANSSMLGEGQVLRSPTNRLLLHFQSPRVPRGGGFRIHYQAYLLSCGFPPRPAHGDVSVTDLHPGGTATFHCDSGYQLQGEETLICLNGTRPSWNGETPSCMASCGGTIHNATLGRIVSPEPGGAVGPNLTCRWVIEAAEGRRLHLHFERVSLDEDNDRLMVRSGGSPLSPVIYDSDMDDVPERGLISDAQSLYVELLSETPANPLLLSLRFEAFEEDRCFAPFLAHGNVTTTDPEYRPGALATFSCLPGYALEPPGPPNAIECVDPTEPHWNDTEPACKAMCGGELSEPAGVVLSPDWPQSYSPGQDCVWGVHVQEEKRILLQVEILNVREGDMLTLFDGDGPSARVLAQLRGPQPRRRLLSSGPDLTLQFQAPPGPPNPGLGQGFVLHFKEVPRNDTCPELPPPEWGWRTASHGDLIRGTVLTYQCEPGYELLGSDILTCQWDLSWSAAPPACQKIMTCADPGEIANGHRTASDAGFPVGSHVQYRCLPGYSLEGAAMLTCYSRDTGTPKWSDRVPKCALKYEPCLNPGVPENGYQTLYKHHYQAGESLRFFCYEGFELIGEVTITCVPGHPSQWTSQPPLCKVTQTTDPSRQLEGGNLALAILLPLGLVIVLGSGVYIYYTKLQGKSLFGFSGSHSYSPITVESDFSNPLYEAGDTREYEVSI [SEZ6L2],-0.174,-0.928,-1.52,53.7,54.8,0.0248
MGTQKVTPALIFAITVATIGSFQFGYNTGVINAPEKIIKEFINKTLTDKGNAPPSEVLLTSLWSLSVAIFSVGGMIGSFSVGLFVNRFGRRNSMLIVNLLAVTGGCFMGLCKVAKSVEMLILGRLVIGLFCGLCTGFVPMYIGEISPTALRGAFGTLNQLGIVVGILVAQIFGLEFILGSEELWPLLLGFTILPAILQSAALPFCPESPRFLLINRKEEENAKQILQRLWGTQDVSQDIQEMKDESARMSQEKQVTVLELFRVSSYRQPIIISIVLQLSQQLSGINAVFYYSTGIFKDAGVQEPIYATIGAGVVNTIFTVVSLFLVERAGRRTLHMIGLGGMAFCSTLMTVSLLLKDNYNGMSFVCIGAILVFVAFFEIGPGPIPWFIVAELFSQGPRPAAMAVAGCSNWTSNFLVGLLFPSAAHYLGAYVFIIFTGFLITFLAFTFFKVPETRGRTFEDITRAFEGQAHGADRSGKDGVMEMNSIEPAKETTTNV [SLC2A3],-0.0807,-2.61,-5.18,62.7,59.1,-0.0464
MGTVHARSLEPLPSSGPDFGGLGEEAEFVEVEPEAKQEILENKDVVVQHVHFDGLGRTKDDIIICEIGDVFKAKNLIEVMRKSHEAREKLLRLGIFRQVDVLIDTCQGDDALPNGLDVTFEVTELRRLTGSYNTMVGNNEGSMVLGLKLPNLLGRAEKVTFQFSYGTKETSYGLSFFKPRPGNFERNFSVNLYKVTGQFPWSSLRETDRGMSAEYSFPIWKTSHTVKWEGVWRELGCLSRTASFAVRKESGHSLKSSLSHAMVIDSRNSSILPRRGALLKVNQELAGYTGGDVSFIKEDFELQLNKQLIFDSVFSASFWGGMLVPIGDKPSSIADRFYLGGPTSIRGFSMHSIGPQSEGDYLGGEAYWAGGLHLYTPLPFRPGQGGFGELFRTHFFLNAGNLCNLNYGEGPKAHIRKLAECIRWSYGAGIVLRLGNIARLELNYCVPMGVQTGDRICDGVQFGAGIRFL [SAMM50],-0.348,-2.61,-4.33,56.1,54.6,-0.0834
MGVQGFQDYIEKHCPSAVVPVELQKLARGSLVGGGRQRPPQTPLRLLVDADNCLHRLYGGFYTDWVSGGQWNHMLGYLAALAKACFGGNIELFVFFNGALEKARLHEWVKRQGNERQTAQQIVSHVQNKGTPPPKVWFLPPVCMAHCIRLALIRFHVKVAQSIEDHHQEVIGFCRENGFHGLVAYDSDYALCNIPYYFSAHALKLSRNGKSLTTSQYLMHEVAKQLDLNPNRFPIFAALLGNHILPDEDLASFHWSLLGPEHPLASLKVRAHQLVLPPCDVVIKAVADYVRNIQDTSDLDAIAKDVFQHSQSRTDDKVIRFKRAIGYYSATSKPMSFHPPHYLAARPGPFGMPGMVPPHVPPQMLNIPQTSLQAKPVAPQVPSPGGAPGQGPYPYSLSEPAPLTLDTSGKNLTEQNSYSNIPHEGKHTPLYERSSPINPAQSGSPNHVDSAYFPGSSTSSSSDNDEGSGGATNHISGNKIGWEKTGSHSEPQARGDPGDQTKAEGSSTASSGSQLAEGKGSQMGTVQPIPCLLSMPTRNHMDITTPPLPPVAPEVLRVAEHRHKKGLMYPYIFHVLTKGEIKIAVSIEDEANKDLPPAALLYRPVRQYVYGVLFSLAESRKKTERLAFRKNRLPPEFSPVIIKEWAAYKGKSPQTPELVEALAFREWTCPNLKRLWLGKAVEDKNRRMRAFLACMRSDTPAMLNPANVPTHLMVLCCVLRYMVQWPGARILRRQELDAFLAQALSPKLYEPDQLQELKIENLDPRGIQLSALFMSGVDMALFANDACGQPIPWEHCCPWMYFDGKLFQSKLLKASREKTPLIDLCDGQADQAAKVEKMRQSVLEGLSFSRQSHTLPFPPPPALPFYPASAYPRHFGPVPPSQGRGRGFAGVCGFGGPYGETVATGPYRAFRVAAASGHCGAFSGSDSSRTSKSQGGVQPIPSQGGKLEIAGTVVGHWAGSRRGRGGRGPFPLQVVSVGGPARGRPRGVISTPVIRTFGRGGRYYGRGYKNQAAIQGRPPYAASAEEVAKELKSKSGESKSSAMSSDGSLAENGVMAEEKPAPQMNGSTGDARAPSHSESALNNDSKTCNTNPHLNALSTDSACRREAALEAAVLNKEE [FAM120A],-0.143,-0.707,-2.24,50.9,50.6,-0.0663
MHPAGLAAAAAGTPRLRKWPSKRRIPVSQPGMADPHQLFDDTSSAQSRGYGAQRAPGGLSYPAASPTPHAAFLADPVSNMAMAYGSSLAAQGKELVDKNIDRFIPITKLKYYFAVDTMYVGRKLGLLFFPYLHQDWEVQYQQDTPVAPRFDVNAPDLYIPAMAFITYVLVAGLALGTQDRFSPDLLGLQASSALAWLTLEVLAILLSLYLVTVNTDLTTIDLVAFLGYKYVGMIGGVLMGLLFGKIGYYLVLGWCCVAIFVFMIRTLRLKILADAAAEGVPVRGARNQLRMYLTMAVAAAQPMLMYWLTFHLVR [YIF1B],0.0319,-0.959,-1.51,53.5,54.8,-0.373
MHQQKRQPELVEGNLPVFVFPTELIFYADDQSTHKQVLTLYNPYEFALKFKVLCTTPNKYVVVDAAGAVKPQCCVDIVIRHRDVRSCHYGVIDKFRLQVSEQSQRKALGRKEVVATLLPSAKEQQKEEEEKRLKEHLTESLFFEQSFQPENRAVSSGPSLLTVFLGVVCIAALMLPTLGDVESLVPLYLHLSVNQKLVAAYILGLITMAILRT [MOSPD1],0.0717,-1.29,-2.15,54.2,54.9,0.352
MHSEAEESKEVATDVFNSKNLAVQAQKKILGKMVSKSIATTLIDDTSSEVLDELYRVTREYTQNKKEAEKIIKNLIKTVIKLAILYRNNQFNQDELALMEKFKKKVHQLAMTVVSFHQVDYTFDRNVLSRLLNECREMLHQIIQRHLTAKSHGRVNNVFDHFSDCEFLAALYNPFGNFKPHLQKLCDGINKMLDEENI [TNFAIP8],0.339,0.429,-0.108,51.9,51.7,-0.272
